Measurements as given in paper PMC3713096 (Molecular cell, 2013).

B1: BubR1_(1-477) (BubR1^N) (domain or fragment, human, UniProt O60566 1-477, looked up)
chain: MAAVKKEGGALSEAMSLEGDEWELSKENVQPLRQGRIMSTLQGALAQESACNNTLQQQKRAFEYEIRFYTGNDPLDVWDRYISWTEQNYPQGGKESNMSTLLERAVEALQGEKRYYSDPRFLNLWLKLGRLCNEPLDMYSYLHNQGIGVSLAQFYISWAEEYEARENFRKADAIFQEGIQQKAEPLERLQSQHRQFQARVSRQTLLALEKEEEEEVFESSVPQRSTLAELKSKGKKTARAPIIRVGGALKAPSQNRGLQNPFPQQMQNNSRITVFDENADEASTAELSKPTVQPWIAPPMPRAKENELQAGPWNTGRSLEHRPRGNTASLIAVPAVLPSFTPYVEETARQPVMTPCKIEPSINHILSTRKPGKEEGDPLQRVQSHQQASEEKKEKMMYCKEKIYAGVGEFSFEEIRAEVFRKKLKEQREAELLTSAEKRAEMQKQIEEMEKKLKEIQTTQQERTGDQQEETMPTKET
B2: Cdc20_(1-163) (Cdc20^N) (domain or fragment, human, UniProt Q12834 1-163, looked up)
chain: MAQFAFESDLHSLLQLDAPIPNAPPARWQRKAKEAAGPAPSPMRAANRSHSAGRTPGRTPGKSSSKVQTTPSKPGGDRYIPHRSAAQMEVASFLLSKENQPENSQTPTKKEHQKAWALNLNGFDVEEAKILRLSGKPQNAPEGYQNRLKVLYSQKATPGSSRK
B3: GST-Cdc20^N (domain or fragment, human, UniProt Q12834 1-163, looked up)
chain: B2 chain
B4: GST-Cdc20_(166-499) (GST-Cdc20^C) (domain or fragment, human, UniProt Q12834 166-499, looked up)
chain: RYIPSLPDRILDAPEIRNDYYLNLVDWSSGNVLAVALDNSVYLWSASSGDILQLLQMEQPGEYISSVAWIKEGNYLAVGTSSAEVQLWDVQQQKRLRNMTSHSARVGSLSWNSYILSSGSRSGHIHHHDVRVAEHHVATLSGHSQEVCGLRWAPDGRHLASGGNDNLVNVWPSAPGEGGWVPLQTFTQHQGAVKAVAWCPWQSNVLATGGGTSDRHIRIWNVCSGACLSAVDAHSQVCSILWSPHYKELISGHGFAQNQLVIWKYPTMAKVAELKGHTSRVLSLTMSPDGATVASAAADETLRLWRCFELDPARRREREKASAAKSSLIHQGIR
B5: Cdc20^C (Cdc20_(166-499), free in solution) (domain or fragment, human, UniProt Q12834 166-499, looked up)
chain: B4 chain

How the values were obtained:
Experiment in all cases: pull-down
[1] = biological target: Cdc20 (full length, Cdc20^FL) (human, UniProt Q12834 1-499)
[2] = biological target: B4
[3] = biological target: B5
BubR1_(1-363) = BubR1_(1-363) (human, UniProt O60566 1-363)
GST-BubR1^N = GST-BubR1^N (human, UniProt O60566 1-477)

Binder: B1
- fold increase of association with Mad2 against without Mad2 [1]: ~6 fold

Binder: B2
- binding result [2]: binds

Binder: B3
- binding result [3]: binds

Binder: B4
- binding result (BubR1_(1-363)): binds

Binder: B5
- binding result (GST-BubR1^N): binds
